These results are taken from publication doi:10.1101/2025.08.31.673358.

The target of this assay is Fragile X messenger ribonucleoprotein (FMRP) (human (endogenous in iPSC-derived NPCs)) (UniProt Q06787). The assay is described as follows: co-IP.

For the substance “histone H3 di-methylated at lysine 79 (H3K79me2) (from UniProt P68431 1-136) (natural protein)”, the percent of input co-immunoprecipitated was 20%.
